The assay has as its target HER3 on HER3-overexpressing HEK293 cells (human) (UniProt P21860). Description: flow cytometry on cells; stable HEK293 cells expressing HER3 or HER4; purified NRG-1 mutants at 1 and 10 μg/mL, 4 °C, 1 h; goat antihuman Alexa Fluor 647.

Chain of HER3 on HER3-overexpressing HEK293 cells (human) (P21860 20-1342): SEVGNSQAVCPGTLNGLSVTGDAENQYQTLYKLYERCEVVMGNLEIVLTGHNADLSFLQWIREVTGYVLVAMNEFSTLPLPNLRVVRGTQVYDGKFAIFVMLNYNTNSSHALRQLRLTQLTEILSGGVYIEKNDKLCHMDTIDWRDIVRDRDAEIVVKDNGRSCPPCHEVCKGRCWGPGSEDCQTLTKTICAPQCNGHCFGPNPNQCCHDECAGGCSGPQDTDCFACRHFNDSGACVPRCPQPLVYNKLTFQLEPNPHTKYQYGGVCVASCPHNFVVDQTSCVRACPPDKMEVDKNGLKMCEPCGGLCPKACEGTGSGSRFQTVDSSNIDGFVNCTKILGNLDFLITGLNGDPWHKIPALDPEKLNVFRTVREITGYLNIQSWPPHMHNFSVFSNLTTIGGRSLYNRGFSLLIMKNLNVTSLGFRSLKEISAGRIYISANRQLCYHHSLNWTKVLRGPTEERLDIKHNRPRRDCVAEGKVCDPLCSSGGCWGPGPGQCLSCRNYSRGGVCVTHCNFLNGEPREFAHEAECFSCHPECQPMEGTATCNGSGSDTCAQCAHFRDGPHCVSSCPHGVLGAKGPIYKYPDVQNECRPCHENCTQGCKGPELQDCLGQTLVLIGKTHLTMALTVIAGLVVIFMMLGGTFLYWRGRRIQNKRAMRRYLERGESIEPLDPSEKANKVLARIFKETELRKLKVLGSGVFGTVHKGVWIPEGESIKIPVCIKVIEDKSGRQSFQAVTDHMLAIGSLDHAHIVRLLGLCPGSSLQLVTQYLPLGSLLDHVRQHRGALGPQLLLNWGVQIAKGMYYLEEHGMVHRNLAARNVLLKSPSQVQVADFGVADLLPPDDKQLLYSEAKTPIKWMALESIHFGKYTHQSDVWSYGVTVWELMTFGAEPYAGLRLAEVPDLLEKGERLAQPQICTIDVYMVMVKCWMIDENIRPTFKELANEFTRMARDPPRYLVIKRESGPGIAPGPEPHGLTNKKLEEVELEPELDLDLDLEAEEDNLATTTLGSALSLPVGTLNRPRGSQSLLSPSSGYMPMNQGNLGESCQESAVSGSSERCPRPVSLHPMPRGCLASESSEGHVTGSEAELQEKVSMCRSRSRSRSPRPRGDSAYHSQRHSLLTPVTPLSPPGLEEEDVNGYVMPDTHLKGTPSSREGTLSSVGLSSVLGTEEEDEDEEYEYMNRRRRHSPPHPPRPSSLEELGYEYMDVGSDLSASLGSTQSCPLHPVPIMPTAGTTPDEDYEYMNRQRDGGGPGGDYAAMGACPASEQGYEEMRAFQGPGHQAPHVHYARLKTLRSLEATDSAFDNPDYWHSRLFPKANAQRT

As for NRG1-MFc variant E8L (Fc fusion), the ratio of median binding fluorescence to the parental clone was < 0.8.
Next, NRG1-MFc variant H2E (Fc fusion): < 0.8.
The value for NRG1-MFc variant H2T (Fc fusion) was < 0.8.
With NRG1-MFc variant K24G (Fc fusion), the ratio of median binding fluorescence to the parental clone was < 0.8.
Next, NRG1-MFc variant P29D (Fc fusion): < 0.8; NRG1-MFc variant P29L (Fc fusion): < 0.8.
The value for NRG1-MFc variant T41A (Fc fusion) was < 0.8.

The record behind these values is article PMC7566517.
